Assays:
[1] = system: Human neutrophils; test: Phagocytosis ability of neutrophils against Escherichia coli (pHrodo indicator, InCell Analyzer); format: cell-based
Method: (§1) Phagocytosis ability of neutrophils against Escherichia coli (a gram-negative bacterium) or Staphylococcus aureus (a gram-positive bacterium) was measured with a pHrodo™ indicator. Phagosomes within neutrophils can be fluorescence-stained with a pHrodo™ staining reagent to measure their phagocytosis ability. Human neutrophils were separated from the whole blood using a hemocyte separation solution Polymorphprep™, and the cell solution was washed with PBS to perform suspension. The numbers of cells were adjusted, and the cells were stained with Hoechst33342 (nucleus staining: blue) and calcein-AM (cytoplasm: green) by incubation under CO2 at 37° C. for 15 min. Neutrophil solutions were resuspended in HBSS, and the numbers of cells were adjusted (2×10^6 cells/mL).
(§2) To the neutrophil liquids at the cell concentration, hHRG solutions were added, and the mixtures were dispensed to a 96-well plate, allowing incubation under CO2 at 37° C. for 30 min. Then, Escherichia coli (pHrodo™ Escherichia coli) or Staphylococcus aureus (pHrodo™ Staphylococcus aureus) was added to the 96-well plate, and incubated under CO2 at 37° C. In this Example, the final concentration of the cell liquids was 2×10^4 cells/well (2×10^5 cells/mL), the final concentrations of HRG were from 0.01 μM to 3.0 μM, and the final concentration of pHrodo™ Escherichia coli or pHrodo™ Staphylococcus aureus was 25 μg/well (250 μg/mL). The incubation of Escherichia coli was for 60 min, and that of Staphylococcus aureus was for 120 min.
(§3) Through use of InCell Analyzer (GE Healthcare), the amounts of red-colored pHrodo by neutrophils' uptake were analyzed by image analysis and quantification to observe the phagocytosis ability of neutrophils.
To the neutrophil liquids at the cell concentration (2×10^6 cells/mL), each solution of hHRG, rHRG, or HRG-Fc was added to observe the phagocytosis ability of neutrophils against Escherichia coli or Staphylococcus aureus by the same procedure as Experimental Example 1 (HRG final concentrations of from 0.1 μM to 3.0 μM). […] The amounts of red-colored pHrodo by neutrophils' uptake can be imaged and quantified to observe the phagocytosis ability of neutrophils.

[2] = system: Human neutrophils; test: Phagocytosis ability of neutrophils against Staphylococcus aureus (pHrodo indicator, InCell Analyzer); format: cell-based
Method: as §1, §2
as §3, with “neutrophils. The analysis results of phagocytosis ability of neutrophils against Escherichia coli and Staphylococcus aureus are shown in FIG. 4A and FIG. 4B.” for “neutrophils.”
To the neutrophil liquids at the cell concentration (2×10^6 cells/mL), each solution of hHRG, rHRG, or HRG-Fc was added to observe the phagocytosis ability of neutrophils against Escherichia coli or Staphylococcus aureus by the same procedure as Experimental Example 1 (HRG final concentrations of from 0.1 μM to 3.0 μM). As an observation experiment, phagocytosis ability of neutrophils against Escherichia coli or Staphylococcus aureus was observed, when each of different anti-HRG antibodies or control antibodies was added. The amounts of red-colored pHrodo by neutrophils' uptake can be imaged and quantified to observe the phagocytosis ability of neutrophils. […]

[3] = system: neutrophils; test: Opsonin effect 1: phagocytosis by neutrophils of pHrodo Red Zymosan treated with serum containing HRG or no HRG; format: cell-based, Human; settings: Zymosan 500 μg/mL; HRG 1.0 μM; 120 min; compared with serum containing no HRG
Method: In this Experimental Example, the effect of HRG on opsonization (Op) was observed using serum containing HRG or no HRG. Healthy human serum was used for opsonization (Op). In this Experimental Example, the “serum containing HRG” refers to untreated, healthy human serum. In this Experimental Example, the “serum containing no HRG” refers to human serum in which a Ni-NTA agarose gel is added to human serum to adsorb HRG in the serum, and then the Ni-NTA agarose gel is removed by centrifugation.
Zymosan (pHrodo™ Red Zymosan, manufactured by Thermo Fisher Scientific Inc.) was blended with serum containing HRG or no HRG at 4° C., and then the mixture was stirred well by ultrasonic homogenization. After the stirring, centrifugation was performed at 4° C. and 15,000 rpm for 15 min. The supernatant was discarded and the sediment was suspended in HBSS. This washing procedure was repeated twice, and then Zymosan was suspended in HBSS. The concentration of Zymosan at this time of point was 1.0 mg/mL.
To the neutrophil liquids, hHRG solutions were added, and the mixtures were dispensed to a 96-well plate, allowing incubation under CO2 at 37° C. for 30 min. […] Through use of InCell Analyzer (GE Healthcare), the amounts of red-colored pHrodo by neutrophils' uptake were analyzed by image analysis and quantification to observe the phagocytosis ability of neutrophils.

[4] = system: neutrophils; test: Opsonin effect 2: phagocytosis by neutrophils of pretreated Escherichia coli; format: cell-based, Human
Method: (§4) Escherichia coli (pHrodo™ Escherichia coli) or Staphylococcus aureus (pHrdo™ Staphylococcus aureus) was pre-incubated with human serum albumin (HSA, 1.0 μM), hHRG (1.0 μM), or 5-fold-diluted human serum (1/5 Serum) at 37° C. for 15 min, and then Escherichia coli or Staphylococcus aureus was washed twice with HBSS. […] A hHRG solution was added to a neutrophil solution. The mixture was dispensed to a 96-well plate and incubated under CO2 at 37° C. for 30 min. Then, the Escherichia coli or Staphylococcus aureus pretreated with the above-mentioned HSA or HRG solution, or 5-fold-diluted human serum was added, and the resulting mixture was dispensed to the 96-well plate and incubated under CO2 at 37° C. for 120 min. The final concentration of the cell liquid at this time was 2×10^4 cells/well (2×10^5 cells/mL), the final concentration of HSA or HRG was […], and the final concentration of […] was 25 μg/well (250 μg/mL). Through use of InCell Analyzer (GE Healthcare), the amounts of red-colored pHrodo by neutrophils' uptake were analyzed by image analysis and quantification to observe the phagocytosis ability of neutrophils.

[5] = system: neutrophils; test: Opsonin effect 2: phagocytosis by neutrophils of pretreated Staphylococcus aureus; format: cell-based, Human
Method: as §4

[6] = Experimental Example 3, 1.0 μM hHRG, antibodies 10 μM
[7] = bacteria pre-incubated 37° C. 15 min with hHRG 1.0 μM or 5-fold-diluted human serum
[8] = compared to un-opsonized (UnOp) bacterial cells, HRG added to neutrophils
[9] = Experimental Example 2, final concentrations 0.1 μM to 3.0 μM

| Molecule | HRG concentration at which phagocytosis ability reached a plateau ([1]; Experimental Example 1, Escherichia coli) [M] | phagocytosis ability of neutrophils against Escherichia coli ([1]; Experimental Example 1, hHRG 0.01 μM to 3.0 μM, 30 min preincubation, 60 min with pHrodo E. coli) | phagocytosis ability of neutrophils against Escherichia coli [1, 6] | HRG concentration at which phagocytosis ability reached a plateau ([2]; Experimental Example 1, Staphylococcus aureus) [µM] | phagocytosis ability of neutrophils against Staphylococcus aureus ([2]; Experimental Example 1, hHRG 0.01 μM to 3.0 μM, 30 min preincubation, 120 min with pHrodo S. aureus) | phagocytosis ability of neutrophils against Staphylococcus aureus [2, 6] | amount of phagocytosis by neutrophils of serum-treated Zymosan (opsonin effect) [3] | opsonin (Op)-enhancing effect of pretreatment of Escherichia coli [4, 7] | phagocytosis ability of neutrophils of Escherichia coli opsonized with human sera on addition of HRG [4, 8] | opsonin (Op)-enhancing effect of pretreatment of Staphylococcus aureus [5, 7] | phagocytosis ability of neutrophils of Staphylococcus aureus opsonized with human sera on addition of HRG [5, 8] | enhancement of phagocytosis of neutrophils against Escherichia coli [1, 9] | enhancement of phagocytosis of neutrophils against Staphylococcus aureus [2, 9] |
| --- | --- | --- | --- | --- | --- | --- | --- | --- | --- | --- | --- | --- | --- |
| HRG: Human plasma-derived histidine-rich glycoprotein, about 80 kDa, purified by Ni-NTA affinity and Mono Q chromatography (protein) VSPTDCSAVEPEAEKALDLINKRRRDGYLFQLLRIADAHLDRVENTTVYYLVLDVQESDCSVLSRKYWNDCEPPDSRRPSEIVIGQCKVIATRHSHESQDLRVIDFNCTTSSVSSALANTKDSPVLIDFFEDTERYRKQANKALEKYKEENDDFASFRVDRIERVARVRGGEGTGYFVDFSVRNCPRHHFPRHPNVFGFCRADLFYDVEALDLESPKNLVINCEVFDPQEHENINGVPPHLGHPFHWGGHERSSTTKPPFKPHGSRDHHHPHKPHEHGPPPPPDERDHSHGPPLPQGPPPLLPMSCSSCQHATFGTNGAQRHSHNNNSSDLHPHKHHSHEQHPHGHHPHAHHPHEHDTHRQHPHGHHPHGHHPHGHHPHGHHPHGHHPHCHDFQDYGPCDPPPHNQGHCCHGHGPPPGHLRRRGPGKGPRPFHCRQIGSVYRLPPLRKGEVLPLPEANFPSFPLPHHKHPLKPDNQPFPQSVSESCPGKFKSGFPQVSMFFTHTFPK | 0.3 | enhanced | enhanced | 0.3 | enhanced | enhanced | opsonin (Op)-enhancing effect | did not exhibit an opsonin (Op)-enhancing effect | highly enhanced | did not exhibit an opsonin (Op)-enhancing effect | highly enhanced | – | – |
| rHRG: Recombinant human HRG expressed in CHO cells, purified on Ni-NTA agarose (protein, misc_feature 1..1596 EcoR1-HRG-Xho1, Recombinant human HRG expressed in CHO cells, purified on Ni-NTA agarose) EFRMGKALIAALLLITLQYSCAVSPTDCSAVEPEAEKALDLINKRRRDGYLFQLLRIADAHLDRVENTTVYYLVLDVQESDCSVLSRKYWNDCEPPDSRRPSEIVIGQCKVIATRHSHESQDLRVIDFNCTTSSVSSALANTKDSPVLIDFFEDTERYRKQANKALEKYKEENDDFASFRVDRIERVARVRGGEGTGYFVDFSVRNCPRHHFPRHPNVFGFCRADLFYDVEALDLESPKNLVINCEVFDPQEHENINGVPPHLGHPFHWGGHERSSTTKPPFKPHGSRDHHHPHKPHEHGPPPPPDERDHSHGPPLPQGPPPLLPMSCSSCQHATFGTNGAQRHSHNNNSSDLHPHKHHSHEQHPHGHHPHAHHPHEHDTHRQHPHGHHPHGHHPHGHHPHGHHPHGHHPHCHDFQDYGPCDPPPHNQGHCCHGHGPPPGHLRRRGPGKGPRPFHCRQIGSVYRLPPLRKGEVLPLPEANFPSFPLPHHKHPLKPDNQPFPQSVSESCPGKFKSGFPQVSMFFTHTFPKPLE | – | – | – | – | – | – | – | – | – | – | – | to the same extent as hHRG | to the same extent as hHRG |

From US20240252589A1, “AGENT FOR ENHANCING PHAGOCYTOSIS ABILITY OF NEUTROPHILS” (priority 2018, published 2024)
